Assays:
[1] = target: Full length UFC1, residues 1–167 (UniProt Q9Y3C8); experiment: ITC; VP-ITC, 25 °C; UBA5 peptides (~400 µM) titrated into 20–25 µM binding partner; 25 mM HEPES pH 7.5, 100 mM NaCl; one-site model; a single profile for each interaction
[2] = target: Full length UBA5, residues 1–404 (human) (UniProt Q9GZZ9); experiment: ITC; UFC1 titrated to FL^1–404 and to FL^1–404 C250K~UFM1; 25 °C; 25 mM HEPES pH 7.5, 100 mM NaCl; one-site model
[3] = target: Full length UBA5 (res. 1–404) C250K mutant stably conjugated to UFM1 (UniProt Q9GZZ9); experiment: as above
Full length UBA5 (res. 1–404) C250K mutant stably conjugated to UFM1, sequence (Q9GZZ9 whole entry C250K, chain 1 of 2): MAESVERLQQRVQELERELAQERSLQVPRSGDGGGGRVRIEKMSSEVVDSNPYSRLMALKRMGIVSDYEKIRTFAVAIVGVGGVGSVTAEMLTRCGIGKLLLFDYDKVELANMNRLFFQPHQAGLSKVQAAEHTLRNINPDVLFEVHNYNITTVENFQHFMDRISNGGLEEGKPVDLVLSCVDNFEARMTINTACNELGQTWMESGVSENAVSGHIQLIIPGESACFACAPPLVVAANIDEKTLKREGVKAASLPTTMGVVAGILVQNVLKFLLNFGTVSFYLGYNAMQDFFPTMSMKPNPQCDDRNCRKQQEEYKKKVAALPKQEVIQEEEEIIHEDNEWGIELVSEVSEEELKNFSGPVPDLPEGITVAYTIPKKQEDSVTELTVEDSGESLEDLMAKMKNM
Full length UBA5 (res. 1–404) C250K mutant stably conjugated to UFM1, sequence (P61960 other isoform, or with tags, fused parts or gaps C250K, chain 2 of 2, further chain): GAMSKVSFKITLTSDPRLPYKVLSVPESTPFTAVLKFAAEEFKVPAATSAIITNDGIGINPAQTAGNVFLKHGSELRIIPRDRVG

UBA5 C-terminal regions R2 and R3, residues 359–404, sequence (Q9GZZ9 other isoform, or with tags, fused parts or gaps): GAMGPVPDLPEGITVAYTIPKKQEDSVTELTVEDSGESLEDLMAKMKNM
UBA5 C-terminal region R2, residues 359–376, sequence (Q9GZZ9 other isoform, or with tags, fused parts or gaps): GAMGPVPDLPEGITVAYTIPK

| Substance | Ka [1] [M⁻¹] | Kd [1] [nM] | dH [1] [kcal/mol] | stoichiometry N [1] | further results |
| --- | --- | --- | --- | --- | --- |
| UBA5 C-terminal regions R2 and R3, residues 359–404 (from UniProt Q9GZZ9 359-404) (peptide) | 370000 | 2700 | -8.08 | 0.97 | – |
| UBA5 C-terminal region R2, residues 359–376 (from UniProt Q9GZZ9 359-376) (peptide) | – | > 50000 | – | – | – |
| UBA5 C-terminal part, residues 325–404 (from UniProt Q9GZZ9 325-404) (domain or fragment) | 410000 | 2400 | -7.04 | 1.03 | – |
| Full length UFC1, residues 1–167 (from UniProt Q9Y3C8 1-167) (enzyme) | – | – | – | – | Ka [2]: 720000 M⁻¹; Kd [2]: 1400 nM; dH [2]: -7.62 kcal/mol; stoichiometry N [2]: 0.97; Ka [3]: 870000 M⁻¹; Kd [3]: 1200 nM; dH [3]: -8.21 kcal/mol; stoichiometry N [3]: 1.03 |

The next lines start with results.

| Ka [1] [M⁻¹] | Kd [1] [nM] | dH [1] [kcal/mol] | stoichiometry N [1] | Substance | further results |
| --- | --- | --- | --- | --- | --- |
| 600000 | 1600 | -7.78 | 1.03 | UBA5 C-terminal part with A371E mutant (res. 325–404) (from UniProt Q9GZZ9 325-404) (domain or fragment) | – |
| 540000 | 1800 | -7.88 | 1.03 | UBA5 C-terminal part with A371T mutant (res. 325–404) (from UniProt Q9GZZ9 325-404) (domain or fragment) | – |
